From PMC6697728 come the findings set out here.

In the test the target is EphB2-GFP (UniProt P29323).
UniProt P29323, sequence (P29323 19-1055): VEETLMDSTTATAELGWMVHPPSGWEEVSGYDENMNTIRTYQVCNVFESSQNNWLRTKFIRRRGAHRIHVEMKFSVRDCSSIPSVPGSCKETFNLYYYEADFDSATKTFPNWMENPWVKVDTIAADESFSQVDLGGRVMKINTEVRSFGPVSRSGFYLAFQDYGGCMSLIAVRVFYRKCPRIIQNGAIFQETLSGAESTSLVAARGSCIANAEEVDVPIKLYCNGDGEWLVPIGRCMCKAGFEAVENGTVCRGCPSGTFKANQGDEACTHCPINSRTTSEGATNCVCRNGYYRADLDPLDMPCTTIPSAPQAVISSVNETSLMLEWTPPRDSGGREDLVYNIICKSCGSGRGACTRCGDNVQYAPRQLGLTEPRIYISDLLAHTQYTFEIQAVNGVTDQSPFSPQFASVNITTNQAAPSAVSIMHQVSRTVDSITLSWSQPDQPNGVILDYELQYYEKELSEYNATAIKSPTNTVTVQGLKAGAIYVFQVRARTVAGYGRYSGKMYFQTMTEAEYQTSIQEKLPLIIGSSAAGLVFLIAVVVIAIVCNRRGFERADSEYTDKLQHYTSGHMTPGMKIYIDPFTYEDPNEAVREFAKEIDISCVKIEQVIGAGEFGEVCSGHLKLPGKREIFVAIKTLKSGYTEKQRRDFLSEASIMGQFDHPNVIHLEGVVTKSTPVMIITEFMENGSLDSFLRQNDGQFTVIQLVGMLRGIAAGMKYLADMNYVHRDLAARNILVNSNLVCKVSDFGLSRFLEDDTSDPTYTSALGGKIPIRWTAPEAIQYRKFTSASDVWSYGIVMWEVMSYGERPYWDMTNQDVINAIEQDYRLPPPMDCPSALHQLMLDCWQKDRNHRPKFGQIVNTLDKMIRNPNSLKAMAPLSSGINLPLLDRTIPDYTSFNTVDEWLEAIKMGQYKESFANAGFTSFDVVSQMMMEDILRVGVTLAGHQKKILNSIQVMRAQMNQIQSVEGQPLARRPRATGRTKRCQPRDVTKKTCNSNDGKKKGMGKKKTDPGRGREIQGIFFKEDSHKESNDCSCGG

“ephrin-B2-Fc (from UniProt P52799 28-229) (Fc fusion)” displayed a decrease in HeLa cell area (collapse) of Control shRNA EphB2-OE cells after 15 min with 1 ug/mL pre-clustered eB2 against Fc of 50%.
